Source: patent publication US20220002432A1 (VIRTUOSO BINCO, published 2022)

T1: Rhesus-ICAM1 (rhesus, UniProt Q5NKV6 28-480, limits assumed)
T1 sequence (looked up): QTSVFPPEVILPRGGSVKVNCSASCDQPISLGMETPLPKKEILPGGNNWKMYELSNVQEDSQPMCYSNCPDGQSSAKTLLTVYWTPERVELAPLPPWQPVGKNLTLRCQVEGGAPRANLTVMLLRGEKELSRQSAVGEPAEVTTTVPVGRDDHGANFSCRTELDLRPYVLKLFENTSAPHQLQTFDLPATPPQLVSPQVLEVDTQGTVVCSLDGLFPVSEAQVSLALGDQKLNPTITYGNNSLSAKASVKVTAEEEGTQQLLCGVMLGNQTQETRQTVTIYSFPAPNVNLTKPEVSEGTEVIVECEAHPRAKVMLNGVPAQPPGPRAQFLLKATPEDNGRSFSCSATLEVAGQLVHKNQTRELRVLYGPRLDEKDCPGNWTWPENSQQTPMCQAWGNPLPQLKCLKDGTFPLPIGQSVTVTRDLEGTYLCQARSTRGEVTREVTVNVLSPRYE


Columns and labels:
[1] = target: T2, ICAM1 on the surface of DU145 cells (human, UniProt P05362 28-532); assay: flow cytometry, DU145 cells;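 also: purified antibodies in dilution series bound to cells for 1 h at 4 °C, detected with a fluorescent secondary antibody (1 h, 4 °C, dark), read by flow cytometry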
T2 construct: whole, on cells
T2 sequence (P05362 28-532): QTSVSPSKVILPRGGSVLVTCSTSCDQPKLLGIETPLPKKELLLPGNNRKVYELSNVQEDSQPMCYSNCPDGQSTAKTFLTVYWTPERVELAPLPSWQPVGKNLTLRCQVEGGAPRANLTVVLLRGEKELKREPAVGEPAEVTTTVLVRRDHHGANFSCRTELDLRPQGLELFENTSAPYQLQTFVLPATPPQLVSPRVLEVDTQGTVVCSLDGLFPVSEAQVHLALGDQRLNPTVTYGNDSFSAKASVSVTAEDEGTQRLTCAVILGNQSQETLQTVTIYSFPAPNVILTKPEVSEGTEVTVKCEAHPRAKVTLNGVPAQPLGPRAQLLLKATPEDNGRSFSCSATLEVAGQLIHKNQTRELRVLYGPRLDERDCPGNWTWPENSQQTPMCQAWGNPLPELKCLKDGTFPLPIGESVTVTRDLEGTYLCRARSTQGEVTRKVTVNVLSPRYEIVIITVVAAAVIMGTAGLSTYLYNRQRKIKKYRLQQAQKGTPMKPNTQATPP
Experimental: Harvested cells were centrifuged at 2000 rpm for 5 min and resuspended with 10-15 ml ice-cold culture medium. Cells were counted and then 3×10⁶ cells were resuspended per mL of blocking buffer (PBS plus 2% FBS). 100 μl of the cell suspension was dispensed into each well of a 96-well plate and incubated at room temperature for 10-20 min. […] While incubating, purified antibodies were diluted to the desired dilution with blocking buffer. After a 10-20 minutes incubation, cells were centrifuged for 5 min at 2000 rmp in a refrigerated centrifuge. Blocking buffer was aspirated, and cells were resuspended in 100 μl/well diluted antibodies and incubated for 1 hour at 4° C. The cells were then washed 3 times with PBS plus 2% FBS. After the final wash, the cells were resuspended in 100 μl 1:500 diluted secondary antibody (Invitrogen, Cat #: A10631) and incubated for 1 hour at 4° C. in the dark. The cells were then washed 3 times with 200 μl PBS by centrifuging at 2000 rpm for 5 min. After the last wash, the cells were resuspended in 300 μl cold PBS and analyzed on a FACSVerse™ (BD Biosciences) flow cytometer.

recombinant human ICAM1 [2] = target: T3, recombinant human ICAM1 (human, UniProt P05362 28-480, limits assumed); assay: SPR (Biacore 8K), antibody captured, antigen injected
T3 sequence (P05362 28-480 limits assumed): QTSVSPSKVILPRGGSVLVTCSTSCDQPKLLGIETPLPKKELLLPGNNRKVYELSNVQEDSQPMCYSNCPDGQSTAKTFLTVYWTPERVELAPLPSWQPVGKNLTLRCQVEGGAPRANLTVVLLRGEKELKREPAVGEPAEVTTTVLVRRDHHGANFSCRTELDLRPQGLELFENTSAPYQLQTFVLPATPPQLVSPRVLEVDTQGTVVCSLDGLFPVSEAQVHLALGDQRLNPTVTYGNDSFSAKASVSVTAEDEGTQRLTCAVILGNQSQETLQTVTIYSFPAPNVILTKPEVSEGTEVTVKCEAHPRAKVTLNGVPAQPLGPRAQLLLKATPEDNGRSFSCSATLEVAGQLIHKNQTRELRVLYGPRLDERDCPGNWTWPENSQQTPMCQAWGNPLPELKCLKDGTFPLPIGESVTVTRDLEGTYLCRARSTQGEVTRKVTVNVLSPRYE
Experimental: (§1) The binding kinetics of the anti-CD38 and anti-ICAM1 antibodies were evaluated on a Biacore 8K instrument (GE Healthcare). Biacore Series S CM5 sensor chips were immobilized with monoclonal mouse anti-human IgG (Fc) antibody (human antibody capture kit from GE Healthcare). Antibodies were captured on each flow cell. Serial 3-fold dilutions of each antigen were injected at a flow rate of 30 μl/min. Each sample was analyzed with 1 min association and 10 min dissociation at room temperature (25° C.). After each injection, the chip was regenerated using 3M MgCl₂. A 1:1 Langmuir model of simultaneous fitting of kₒₙ and koff was used for kinetics analysis.

Rhesus-ICAM1 [3] = target: T1, Rhesus-ICAM1; assay: as above
Experimental: as §1

recombinant human ICAM1 [4] = target: T3, recombinant human ICAM1; assay: ELISA: plate coated with 1 ug/ml recombinant human ICAM1 ECD, serially diluted antibody, OD450
Experimental: (§2) The plate was coated overnight at 4° C. with 1 μg/ml recombinant CD38 or ICAM1. After washing 3 times, the plate was blocked with 300 μl 1% BSA in PBST at 37° C. for 1 hour. Serially diluted antibodies were added and incubated at 37° C. for 1 hour. The plate was then washed 4 times with PBST and incubated with 1:5000 diluted 2nd antibody (Sigma, Cat #A0293) at 37° C. for 1 hour.

Rhesus-ICAM1 [5] = target: T1, Rhesus-ICAM1; assay: ELISA: plate coated with 1 ug/ml recombinant rhesus ICAM1 ECD, serially diluted antibody, OD450
Experimental: as §2

Row | Binder | EC50 [1] | Max Binding MFI [1] | Kd (recombinant human ICAM1 [2]) | koff (recombinant human ICAM1 [2]) | kon (recombinant human ICAM1 [2]) | Kd (Rhesus-ICAM1 [3]) | koff (Rhesus-ICAM1 [3]) | kon (Rhesus-ICAM1 [3]) | EC50 (read off the curve) (recombinant human ICAM1 [4]) | EC50 (read off the curve) (Rhesus-ICAM1 [5])
1 | 5B12 (antibody, human IgG1, kappa, V domains shown, Rabbit-human chimeric anti-ICAM1: rabbit VH and VL on human IgG1 and kappa constant regions) VH: QSLEESGGRLVTPGTPLTLTCTVSGFSLSSYGMSWVRQAPGKGLEYIGWISFSGSAYYANWAKGRFTISKTSTTVDLKITSPTTEDTATYFCARGGDYGGSTYILNLWGPGTLVTVSS VL: AFELTQTPSSVEAAVGGTVTIKCQASESIDSYLSWYQQKPGQPPKLLIYAASTLASGVSSRFKGSGSGTEFTLTISDLESADAATYYCQSYSGTITTSGGAFGGGTEVVVKR | 112 pM | 5940 MFI | 2740 pM | 0.000584 s⁻¹ | 213000 M⁻¹ s⁻¹ | 8200 pM | 0.00218 s⁻¹ | 266000 M⁻¹ s⁻¹ | ~40 pM | ~40 pM
2 | 10B8 (antibody, human IgG1, kappa, V domains shown, Rabbit-human chimeric anti-ICAM1: rabbit VH and VL on human IgG1 and kappa constant regions) VH: QSLEESGGRLVTPGGSLTLTCTVSGFSLSSYGMSWVRQAPGKGLEYIGWISFSGSAYYANWAKGRFTISKTSTTVDLKITSPTTEDTATYFCARGGDYGGSTYILNLWGPGTLVTVSS VL: AFELTQTPSSVEAAVGGTVTIKCQASESINSYLSWYQQKPGQPPKLLIYAASTLASGVSSRFKGSGSGTEFTLTISDLESADAATYYCQSYSGTISTSGGAFGGGTEVVVKR | 251 pM | 6220 MFI | 3320 pM | 0.000682 s⁻¹ | 206000 M⁻¹ s⁻¹ | 8270 pM | 0.00245 s⁻¹ | 296000 M⁻¹ s⁻¹ | ~40 pM | ~40 pM
3 | 8B12 (antibody, human IgG1, kappa, V domains shown, Rabbit-human chimeric anti-ICAM1: rabbit VH and VL on human IgG1 and kappa constant regions) VH: QSVEESGGGLVKPGGTLTLTCTVSGFSLSTHAMGWVRQAPGKGLEYIGIIGSSDRTYYASWAKGRFTISKTSTTVDLKITSPTTEDTATYFCVRDPYDSFDDGYRLWGPGTLVTVSS VL: AYDMTQTPASVEVAVGGTVTIKCQASQSIYSYLSWYQQKPGQRPKFLIYDASKVASGVPSRFKGSGSGTEFTLTISAVQSDDAATYYCQQAYSSSNVDNAFGGGTEVMVKR | 1020 pM | 3750 MFI | 260 pM | 0.000115 s⁻¹ | 442000 M⁻¹ s⁻¹ | 880 pM | 0.000658 s⁻¹ | 746000 M⁻¹ s⁻¹ | ~40 pM | ~40 pM
4 | 16E4 (antibody, human IgG1, kappa, V domains shown, Rabbit-human chimeric anti-ICAM1: rabbit VH and VL on human IgG1 and kappa constant regions) VH: QSVEESGGRLVTPGTPLTLTCTVSGFSLSSHAMGWVRQAPGKGLQYIGIIGSSGSTYYASWAKGRFTISKTSTTVDLRLTSPTTEDTATYFCVRDPYDSFGDAYRLWGPGTLVTVSS VL: AYDMTQTPASVEVAVGGTVTIKCQASQSIYSYCSWYQQKPGQRPKFLIYDASKLASGVPSRFKGSGSGTEFTLTISGMQSDDAATYYCQQAYSSSNVDNAFGGGTEVVVKR | 1450 pM | 3700 MFI | 570 pM | 0.000134 s⁻¹ | 237000 M⁻¹ s⁻¹ | 540 pM | 0.000277 s⁻¹ | 517000 M⁻¹ s⁻¹ | ~40 pM | ~40 pM
5 | 6G8 (antibody, human IgG1, kappa, V domains shown, Rabbit-human chimeric anti-ICAM1: rabbit VH and VL on human IgG1 and kappa constant regions) VH: QSVEESGGGLVKPGGTLTLTCTVSGFSLSSYAMGWVRQAPGKGLEYIGIIGSSGSTYYATWAKGRFTISKTSTTVDLKITSPTTEDTATYFCVRDPYDSYDAAYRLWGPGTLVTVSS VL: AYDMSQTPASVEVAVGGTVTIKCQASQSIYSYLSWYQQKPGQRPKLLIYDASKLASGVPSRFTGSGSGTEFTLTISGVQSDDAATYYCQQAYSSSNVDNVFGGGTEVVVKR | 2230 pM | 4190 MFI | 1700 pM | 0.000533 s⁻¹ | 314000 M⁻¹ s⁻¹ | 850 pM | 0.00126 s⁻¹ | 1.47e+06 M⁻¹ s⁻¹ | ~40 pM | ~40 pM

Further binders by falling EC50 [1], results first:

Row | EC50 [1] | Max Binding MFI [1] | Kd (recombinant human ICAM1 [2]) | koff (recombinant human ICAM1 [2]) | kon (recombinant human ICAM1 [2]) | Kd (Rhesus-ICAM1 [3]) | koff (Rhesus-ICAM1 [3]) | kon (Rhesus-ICAM1 [3]) | EC50 (read off the curve) (recombinant human ICAM1 [4]) | EC50 (read off the curve) (Rhesus-ICAM1 [5]) | Binder
6 | 6010 pM | 2940 MFI | 2850 pM | 0.00027 s⁻¹ | 94800 M⁻¹ s⁻¹ | 3200 pM | 0.000596 s⁻¹ | 186000 M⁻¹ s⁻¹ | ~40 pM | ~40 pM | 14B3 (antibody, human IgG1, kappa, V domains shown, Rabbit-human chimeric anti-ICAM1: rabbit VH and VL on human IgG1 and kappa constant regions) VH: QSLEESGGDLVKPGASLTLTCTASGFSSSSGYYICWVRQAPGKGLEWIACIGAGSGAAYYASWAKGRFTMSKTSSTTVTLQMTSLTAADTATYFCARGGFVVGGGYGGYCFNLWGPGTLVTVSS VL: AQVLTQTASSVSATVGGTVTISCQSSESVDVNNLAWYQQKPGQPPKLLIYSASTLASGVPSRFKGSGSGTQFTLTVSDLESADAATYYCAGGYSGNIFAFGGGTAVVVKR
7 | 1590 pM | 3980 MFI | 650 pM | 0.000149 s⁻¹ | 227000 M⁻¹ s⁻¹ | 1170 pM | 0.000387 s⁻¹ | 330000 M⁻¹ s⁻¹ | ~40 pM | ~40 pM | 2E3 (antibody, human IgG1, kappa, V domains shown, Rabbit-human chimeric anti-ICAM1: rabbit VH and VL on human IgG1 and kappa constant regions) VH: QSVEESGGGLVKPGGTLTLTCTVSGFSLSSYAMGWVRQAPGKGLEYIGIIGSSGSTYYASWAKGRFTISKTSTTVDLKITSPTTEDTATYFCVRDPYDSFGDGYRLWGPGTLVTVSS VL: AYDMTQTPASVEVAVGGTVTIKCQASENIYRYLLWYQQKLGQRPSLLIYDASKLASGVPSRFKGSGSGTEFTLTISGVQSDDAATYYCQQAYSSSNVDNAFGGGTEVVVKR
8 | 208 pM | 6430 MFI | 16800 pM | 0.00909 s⁻¹ | 540000 M⁻¹ s⁻¹ | 17300 pM | 0.0348 s⁻¹ | 2.01e+06 M⁻¹ s⁻¹ | ~40 pM | ~40 pM | 3D8 (antibody, human IgG1, kappa, V domains shown, Rabbit-human chimeric anti-ICAM1: rabbit VH and VL on human IgG1 and kappa constant regions) VH: QSLEESGGDLVKPGASLTLTCTASGFSFSSSYWMCWVRQAPGKGLEWIACIDGGSAGYNYYATWAKGRFTISKTSSTTVTLQMTSLTAADRATYFCARGPGSSYNLWGPGTLVTVSS VL: DIVMTQTPASVEAAVGGTVTIKCQASQSISSYLSWYQQKPGQPPKLLIYRASTLASGVPSRFKGSGSGTEFTLTISDLESADAATYYCQSYVFGSSRSYDNAFGGGTEVVVKR
9 | 124 pM | 9190 MFI | 24400 pM | 0.00361 s⁻¹ | 148000 M⁻¹ s⁻¹ | 7060 pM | 0.00189 s⁻¹ | 268000 M⁻¹ s⁻¹ | ~40 pM | ~40 pM | 8E5 (antibody, human IgG1, kappa, V domains shown, Rabbit-human chimeric anti-ICAM1: rabbit VH and VL on human IgG1 and kappa constant regions) VH: QSLEESGGRLVTPGTPLTLTCTVSGFSLSNYAMNWVRQAPGKGLEWIGYISTRGSAYYASWAKGRFTISKTSTTVDLKMTSPTTEDTATYFCARGDLVGGGYIRGSFDPWGPGTLVTVSS VL: AQVLTQTPSPVSAAVGGTVTINCQSSQSVVSDKLLSWFQQKPGQPPKLLIYGASTLASGVPSRFKGSGSGTQFTLTISDVQSDDAATYYCAGAYSTDSDIRAFGGGTEVVVKR
